Test results as given in patent US20150359847A1, “METHOD AND COMPOSITION FOR CONFERRING NEUROPROTECTION” (BLOOD SYSTEMS RESEARCH INSTITUTE, priority 2014, published 2015).

Key:
SH-SY5Y cells = assay: Hypoxia and MTT assay; type: cell-based, human; conditions: 5 hrs hypoxia + 18 hrs recovery; 1 hr pre-treatment with 1 ng/ml TIMP3
Protocol: MTT Cell Viability & Proliferation Assay™ was purchased from ScienCell, (Cat#8028. Carlsbad, Calif.) and performed with modifications. In brief, 2×10^5 SH-SY5Y cells were plated per well of a 12 well plate and differentiated for 2 days. Pre-treatments were conducted 1 hr prior to initiation of hypoxia. Control cells underwent media exchange. For hypoxia, cultures were placed in a hypoxia incubator chamber (Cat#27310. StemCell technologies, Vancouver, BC) and purged of regular air using nitrogen gas for 5 mins at a flow rate of 20 L/min, after which both inlet and outlet values were closed and the chamber was placed inside a regular tissue culture incubator. The chamber was re-gassed after one hour again for 5 mins at a flow rate of 20 L/min. After the hypoxia period, tissue culture plates were removed from the chamber and placed back into a regular tissue culture incubator for 18 hrs. At the time of assay 50 μl of MTT Solution was added to each well and incubated for 1 hr at 37° C. After incubation, add 250 μl of MTT solubilization buffer was added and […] of each test sample was transferred to a well of a 96 well plate. The absorbance was then read using a Polarstar plate reader (BMG Labtech, Cary, N.C.) at a wavelength at 570 nm. Background subtraction was carried out with values from an average of 4 wells of solubilization buffer alone.

[1] = tested on: DCX+ve neurons in the subgranule zone of the dentate gyrus; conditions: 7 days post-TBI
Excerpt: (§1) The mouse controlled cortical impact (CCI) injury model was used as previously described. In brief, mice were anesthetized with 5% isoflurane and 1:1 O2:N2 mixture. Animals were mounted on a stereotaxic frame and were secured by ear bars and an incisor bar. Anesthesia was maintained with 2.0% isoflurane and 1:1 O2:N2 mixture. A 5-mm-diameter craniotomy was made midway between bregma and lambda on the right side, with the medial edge of the craniotomy 1 mm lateral to midline. Injury was produced using a magnetic impactor mounted at an angle of 110° from the vertical plane. A single impact at a velocity of 4+/−0.2 m/s was used inflict a moderate to severe injury (1.2-1.3 mm impact depth). After injury, the incision was closed. Sham animals underwent identical surgeries except for impact injury. Core body temperature was monitored using a rectal thermometer and maintained at 36.8° C.-37.2° C. with a heating pad throughout the procedure. For treatments, TIMP3 (60.0 μg/kg) or vehicle control (PBS) administration was performed at 2, 24, and 48 hrs after injury via tail vein injections in a total volume of 125 μl. Animal research was performed with approval of the Institutional Animal Care and Use Committee at ISIS Services LLC (San Carlos, Calif., USA). […]

[2] = tested on: NeuN+ve hilar neurons of the dentate gyrus; assay: NeuN staining of hilar neurons of the dentate gyrus 7 days post-TBI; type: in vivo, mouse
Excerpt: as §1

hippocampal neurons [3] = assay: Sholl analysis of isolated hippocampal neurons; type: cell-based, mouse; conditions: 1 μg/ml TIMP3, 72 hrs
Protocol: SH-SY5Y cells were obtained from ATCC (Cat# CRL-2266, Manassas, Va.) and were cultured in DMEM and 10% FBS up to passage 10. For differentiation of SH-SY5Y cells into a neuronal phenotype, cells were first plated in DMEEM+10% FBS for 24 hrs before exchanging media in DMEM+1% FBS 10 μM retinoic acid. Differentiation was performed for 3 days before experimentation. Hippocampal neurons were prepared according to the protocol by Beaudoin et al. (Nature Protocols 2012; 7(9):1741-1754) with minor modifications. In brief, after trypsin digestion of hippocampi isolated from P1 mouse pups single cell suspensions was created by trituration and plated onto Biocoat™ poly-D-lysine coated 12-well plates (Cat#354470, BD Biosciences, San Jose, Calif.). 2 pups were used per well and cell suspensions were incubated for 10 minutes per well for a total of 6 wells. The serial incubation allowed for variation in cell densities applicable to different experiments but also contributed to the reduction in non-neuronal cells. […]
Sholl analysis on processed images of isolated hippocampal neurons was conducted using the Fiji derivation of Image J. (Hypertext Transfer Protocol://Fiji.sc.Fiji). […] After neurites had been traced the images were rendered as an analyzed skeleton and Sholl analysis was run on the image from the Analyze menu option.

hippocampal neurons [4] = assay: Neurite chamber assay (AXIS axon isolation device); type: cell-based, mouse; conditions: 7 days treatment with TIMP3
Protocol: For AXIS™ Axon Isolation devices, chambers were first sterilized from one side of the groves to the other under flow gradient with 70% ethanol to avoid trapping air in the groves. Afterwards the slides were completely immersed in 70% ethanol for 5 mins. Upon removing the slide from the ethanol bath, chambers were washed twice with PBS under a flow gradient to flush the chambers, the procedure was then repeated with Poly-D-Lysine. Chambers were then incubated with Poly-D-Lysine overnight at 4° C. Prior to plating cells, chambers were flushed with ‘plating media’ (see tissue culture section). Simultaneous plating of the single cell suspension in both wells on side of the groves enabled equilibrium to be obtained and a sufficient number of cell remained in the chamber adjacent to the groves. Hippocampi from 2 pups were used per chamber. Cells were allowed to attach for 4 hrs before excess cells in the wells were detached using the rubber tip from a sterile 1 ml syringe, plating media removed and ‘maintenance media’ with treatments were added. Flow gradients were maintained throughout the culture steps and media exchanges were performed with this in mind.

B1: TIMP3: Recombinant tissue inhibitor of matrix metalloproteinase-3, a soluble protein released by MSCs, obtained from Amgen Inc. (protein)
chain: CTCSPSHPQDAFCNSDIVIRAKVVGKKLVKEGPFGTLVYTIKQMKMYRGFTKMPHVQYIHTEASESLCGLKLEVNKYQYLLTGRVYDGKMYTGLCNFVERWDQLTLSQRKGLNYRYHLGCNCKIKSCYYLPCFVTSKNECLWTDMLSNFGYPGYQSKHYACIRQKGGYCSWYRGWAPPDKSIINATDP
SH-SY5Y cell viability by MTT after hypoxia (SH-SY5Y cells): prevents loss of cell viability
DCX staining, contralateral side [1]: no significant differences on the contralateral side
DCX+ve neurons, ipsilateral ([1]; IV TIMP3 vs TBI): significantly attenuated
NeuN staining, contralateral side [2]: no significant differences on the contralateral side
NeuN+ve neurons in the hilus, ipsilateral ([2]; IV TIMP3 vs TBI): significantly attenuated the loss of NeuN+ve cells
neurite complexity (Sholl analysis) (hippocampal neurons [3]): significantly increased neurite complexity
neurite outgrowth in neurite chamber (hippocampal neurons [4]): increased neurite outgrowth
